From a protein production outcome set (Wang et al. 2014)

Test: label from the status in PepcDB records

For “SEKYNSLSDFLKEFYIPTYVLSAETEEEEEEESRPTPASPVLVFINSKSGGQLGGELILTYRSLLNHNQVFDLDQETPDKVLRRIYLNLERLKDDDFARQIREKLKIIVAGGDGTAGWLLGVVCDLKLSHPPPIATVPLGTGNNLPFAFGWGKKNPGTDRTAVESFLEQVLKAKVMKIDNWHILMRMKTPKEGGSCDPVAPLELPHSLHAFHRVSPTDELNKEGCHTFRGGFWNYFSLGMDAQISYAFHSERKLHPEKFKNQLVNQSTYVKLGCTQGWFCASLFHPASRNIAQLAKVKIATRNGQWQDLHIPHSIRSIVCLNLPSFSGGLNPWGTPNPRKQRDRGLTPPFVDDGLIEVVGFRNAWHGLVLLAPNGHGTRLAQANRIRFEFHKGATDHTFMRMDGEPWKQPLPLDDETVMVEISHLGQVNMLATHDCRSRSVFDPSTPRHQDGAEDYDDNEDDSVAEGEEFRKFGAADTFKIPDEVDISQLS”, the protein production was “failed”.
With “MSIIIPAYNEEENIKRAIKAALSQDYPVSEVIVVDDGSEDGTYERAKEIKDHRLKVLKIDHRGKAGAINEGLKIAKGSVIVTTDADSFMSKDAVRRLVERFYSDDVVAVGGQIRVIVESFMTLVQDIEHLRIAMYRRGKELENLSLAPGPLSAFRRDVLEKIGGIQRSIVEDYATTKIVKKYGRVVYAPKAKLYTRMPITLRDLWRQRKRWFLGDLQHHNLNDLLNLLLGDVIALLDVILPFIFLLEGSYLPLLAFVMFEVITMVIAVIWEGGSLIEALLFPVVLWFLALFYLSLHLYGYAVYGLKSLLRFTRS” the protein production was “failed”.
For “MRKDETSNTSPDISVAQPASALRYHLRPPRRNDGAAIHQLVSECPPLDLNSLYAYLLLCEHHAHTCVVAESPGGRIDGFVSAYLLPTRPDVLFVWQVAVHSRARGHRLGRAMLGHILERQECRHVRHLETTVGPDNQASRRTFAGLAGERGAHVSEQPFFDRQAFGGADHDDEMLLRIGPFTHPPH”, the protein production was “not failed”.
In the case of “MKQHILVLEDANQRRTIILDEQQYSIGRHSGTSIQIHSRQASRHHATLMRKTNSKTNEECFWIIDGDLEGNKSQNGVFVNGEKRLIHELKNGDLINFGCSINALEHHHHHH”, the protein production is reported as “failed”.
For “MDLVVITETTIPTKITHVNKKSSDELLRKFADPDDVDESSKSTKRRKKSAKSSSREKGVDIESNTSGLVERKRLLLAPASKRRSLFIRQLASGKSHLRNKSLVRTIGKTWRKTMEGASRVFIEKHYNRHRRLTNDVV”, the protein production was “failed”.
For “MMADEEEEVKPILQKLQELVDQLYSFRDCYFETHSVEDAGRKQQDVRKEMEKTLQQMEEVVGSVQGKAQVLMLTGKALNVTPDYSPKAEELLSKAVKLEPELVEAWNQLGEVYWKKGDVAAAHTCFSGALTHCRNKVSLQNLSMVLRQLRTDTEDEHSHHVMDSVRQAKLAVQMDVHDGRSWYILGNSYLSLYFSTGQNPKISQQALSAYAQAEKVDRKASSNPDLHLNRATLHKYEESYGEALEGFSRAAALDPAWPEPRQREQQLLEFLDRLTSLLESKGKVKTKKLQSMLGSLRPAHLGPCSDGHYQSASGQKVTLELKPLSTLQPGVNSGAVILGKVVFSLTTEEKVPFTFGLVDSDGPCYAVMVYNIVQSWGVLIGDSVAIPEPNLRLHRIQHKGKDYSFSSVRVETPLLLVVNGKPQGSSSQAVATVASRPQCE”, the protein production was “failed”.
For “MKPRVEILMSTYNGEKFLAEQLDSILAQTHQYFVLTVRDDGSKDGTPDILSRYAATDERITYCVQENRGVVGSFYWLLKNSSPLSNYVAFSDQDDVWLPNKLERALDVLSRYDETLPLLYCSRVEYVSAGLGHLDDSPMMVRPVCLNNALIQNVATGCTVVMNKAARDLLLEREWPPQVLMHDWWSYIVVSAFGKVVYDDFVSIKYRQHGGNVIGGTVSFVSDYRSRIINFLSRRRKGVFGCYDQAYSFWLGYKDELKGESRGIVSQFIESKRSFLSRLNYLTSSQRVYRHRFIDDVLVRLLILSNKYLEHHHHHH”, the protein production was “failed”.
With “MVLETVSKTEPPPLLGPRISFSSDLSDGGDFICITPVMCKEDVVKGSVKVSDFEFLSSENVSPQRMLTADELFSEGKLLPFWQVKHSEKLKNITLKTNEEEEAEKRKVEVKKKDQEINNRDNRVTWFIDEDPSPRPPKCTVLWKELLRLKKQRNPSSSPVTARTVSSLSPSSSTSSSSSLEDAAKREEKEKEGKRGKKGLERTRSASMRIRPMIHVPICTPSKSSLPLPPLFPLSLKKNRVERRA” the protein production was “failed”.
In the case of “MRVDELRVDERIKSTLKERGIESFYPPQAEALKSGILEGKNALISIPTASGKTLIAEIAMVHRILTQGGKAVYIVPLKALAEEKFQEFQDWEKIGLRVAMATGDYDSKDEWLGKYDIIIATAEKFDSLLRHGSSWIKDVKILVADEIHLIGSRDRGATLEVILAHMLGKAQIIGLSATIGNPEELAEWLNAELIVSDWRPVKLRRGVFYQGFVTWEDGSIDRFSSWEELVYDAIRKKKGALIFVNMRRKAERVALELSKKVKSLLTKPEIRALNELADSLEENPTNEKLAKAIRGGVAFHHAGLGRDERVLVEENFRKGIIKAVVATPTLSAGINTPAFRVIIRDIWRYSDFGMERIPIIEVHQMLGRAGRPKYDEVGEGIIVSTSDDPREVMNHYIFGKPEKLFSQLSNESNLRSQVLALIATFGYSTVEEILKFISNTFYAYQRKDTYSLEEKIRNILYFLLENEFIEISLEDKIRPLSLGIRTAKLYIDPYTAKMFKDKMEEVVKDPNPIGIFHLISLTPDITPFNYSKREFERLEEEYYEFKDRLYFDDPYISGYDPYLERKFFRAFKTALVLLAWINEVPEGEIVEKYSVEPGDIYRIVETAEWLVYSLKEIAKVLGAYEIVDYLETLRVRVKYGIREELIPLMQLPLVGRRRARALYNSGFRSIEDISQARPEELLKIEGIGVKTVEAIFKFLGKNVKISEKPRKSTLDYFLKS”, the protein production is reported as “failed”.
In the case of “MHATDQTFQILLSQLLEKVEDRCPECGSEQYVWQQKNKDGTERCAPTCWSCGYKMLKKHEQQANQQRSQESFMARTQKFFHQGSLIADDALRQCRLTNYQTTELETRQAKERALAAVSAIVEGKPIHVIFSGKPGVGKSHLAISILVEVLERSAYQKYCLFVSYSELLEKLKMSMNESAKSQAKAQAYITRMKKADVLVLDDLGAELGIKNKVSTDFNNDILNRILEARQNKATIFTTNFSGKQLVEAYGTRIISRLMKHANGYVFQYKDTTDKRMRSVKLEHHHHHH”, the protein production is reported as “failed”.
In the case of “IEKCWTEDEVKRFVKGLRQYGKNFFRIRKELLPNKETGELITFYYYWKKT”, the protein production is reported as “not failed”.
With “MKEDRVVFIFGPTAVGKSNILFHFPKNKAEIINVDSIQVYKEFNIASSKPSKNLMKHIKHHLVDFLDPEKDYTIGIFYEQALKIVKEIRQKKKIPIFVGGTAFYFKHLKDGFPSTPLVTSKIRIYVNNLLELKGKSYLLKELKNVDPIRFNMLNKNDIYRIKRSLEVYYQTGIPISQFQKKQSSEFKNIVIIGLKRSFEDLKTRISIRINEMLNSGLLSEIKGLFSKGYNENTPAFKGIGYNEFLLWKSRPCYGLNDIIGLINKNSFLYAKRQMTFFAKISDVLWLHPEDDLDNILNLIFKVDKEI” the protein production was “failed”.
For “CMPYRVEIFDTSHHSSSQCVGGMVVYENNAFQKNSYRRYHLKGSDEYTQMSELLTRRALDFAKEPPPNLWVIDGGRAQLNIALEILKSSGSFVEVIAISKEKRDSKAYRSKGGAKDIIHTPSDTFKLLPSDKRLQWVQKLRDESHRYAINFHRSTKLKNMKQI”, the protein production was “failed”.
With “MSIEERLEALEKEIQKMKDIEEIKKLKGQYFRCLDGKFWDELETTLSPNIVTSYSNGKLVFHGPKEVTDYFKKAMPREEISMHMGHTPEITIDSETTATGRWYLEDKLIFTEESKYAGSGVNGGAFYTDKYEKVDGKWYILETGYLRVYEEHFMRDPKIKITMNMHKTK” the protein production was “not failed”.
For “MAEVTGVRALTGAALDAALEDVARLRIAVFRAWPYLYDGDLDYERDYLQAYRNSDRAIVVGAFDGDRLIGASTGMPLADHADDFAAAFADSGLALDQVFYCAESVLLPDYRGHGVGHRFFDLREGHARALGFAKCAFCGVQRPADHPLKPDSYRPLDAFWRARGYEKLPGAVAHFSWKDLDQENETDKPLQFWIRDL”, the protein production was “failed”.
For “MELPVVVQQALGDNAPGVSFRSVSQIDTGHLLRMVLLSDDQGNLQAICRRNDMLDLEALNKRLGRDLRMMQRREQVRVRQKAGLQELPALPSLTGWPTVVDRRVDELEAVALELGEQDLGLMMPAEDFRQLTAKAARHDFAVDTANISVNLDNHAADRDQLHSAIKRFTGLRIQQRLEDTLELPPLPETAQRIIHLRVNPNAVMGDLVDVVESDPSLAAQVVSWASSSFYAAAGRVHSVHDAVSRVLGFDLVMNLAMGLALGRALKHPQDHPDGYVDYWQQAIWQAQSAGILASMMPRGQRPLFGLAYLAGLLHNFGHLVLAQVFPPHFKLVCRSLEVSPHIDSSVIEHYLLGITREQIAAQLMENWGMPDEVTLAIRYQKNPAYDGPHNVYARLLWLGRQLLTERGVALGAGESATQAVYDELGLDRELVQEQFDELVRRKDSIMAMAGMMSQGG”, the protein production was “not failed”.
In the case of “MNRTAMRASQKDFENSMNQVKLLKKDPGNEVKLKLYALYKQATEGPCNMPKPGVFDLINKAKWDAWNALGSLPKEAARQNYVDLVSSLSPSLESSSQVEPGTD”, the protein production is reported as “not failed”.
In the case of “MRQVTVGGMRVDLVSEIASLAFDKSWLFANVTDAVIAENRSWLDHRYIEPATGRFILSHHSYLVRAPRWTAIVDTCCGNHKKRPRVPVWNDLNQPYLENMRALGVAPEEVDFVMCTHLHVDHVGWNTRLLDGRWVPTFPNARYLMGREEYRHFEAAHNAAPKSPVNHGSFEDSVLPVVAAGLAEFVETDHRLFEDRDAALRFAPAPGHTAGNMQIHLNGGHDHAVMSGDVIHHPIQCAAPWLSNAADVDPAAAVATRMALLEELADTPSYLLTGHFPAPTAGRVIRHGDTYRFRFED”, the protein production is reported as “failed”.
For “MANDKRTSPPTPRQPAKGGAAGKRQGHAAEGTRKPRARGEERKEKPADGRSATALTANERREIDDKQPPRAAVLHEVIRVQGEHELQRTLAALWWSAVAAGLTIGLSLMGMGLFRAALPEQEWAIIVSSFGYPMGFLAVILARQQLFTENTLTAVLPVMTEPTLEKAWQLLRLWSVVLFGNIVGTLLFAWAVLHLPIFNEAADAAFLEIGREVMHNDLAQMFAKGIVSGWMIATMVWLIPAAEGAKIWIIAMVTYLMALGSFTHIVVGSAEVGYLAFAGEIGWAEFLLKFALPTLGGNIVGGSLIFALISHAQIRSEG”, the protein production was “failed”.
In the case of “MKLIAAGLTLIFLGFILLFLGVVLQVQTPQTTTSSSPQFAGLVLLGPIPIAFGNVPPSVLSNLIIVGVVFTIIMLIIYLIMFIIGRKTTRAPF”, the protein production is reported as “failed”.
For “MEEITEGVNNMNLAVDTQKKNRIQVSNTKKPLFFYVNLAKRYMQQYTDVELSALGMAIATVVTVAEILKNNGFAVEKKIMTSTVDIKDDSRGRPVQKAKIEITLAKSEKFDELMAAANEEKEAAEAQEQN”, the protein production was “failed”.
In the case of “MSMNDTYQPINCDDYDNLELACQHHLMLTLELKDGEKLQAKASDLVSRKNVEYLVVEAAGETRELRLDKITSFSHPEIGTVVVSES”, the protein production is reported as “failed”.
In the case of “MNAPLSHSRPMMQPSEDKSLATVFPFAGRVLDETPMLLGEGPTFDPASGTAWWFNILERELHELHLASGRKTVHALPFMGSALAKISDSKQLIASDDGLFLRDTATGVLTLHAELESDLPGNRSNDGRMHPSGALWIGTMGRKAETGAGSIYHVAKGKVTKLFADISIPNSICFSPDGTTGYFVDTKVNRLMRVPLDARTGLPTGKAEVFIDSTGIKGGMDGSVCDAEGHIWNARWGEGAVDRYDTDGNHIARYEVPGKQTTCPAFIGPDASRLLVTSAREHLDDDAITANPQHGLTFELGIEVKGRFEPLYRL”, the protein production is reported as “not failed”.
